Test results reported in article PMC7603899 (Journal of molecular biology, 2020).

Biological target: the molecule itself
Test: crystal structure

B1: Atg11 residues 699-800 (Atg11_(699-800)) (domain or fragment, S. cerevisiae, UniProt Q12527 699-800, looked up)
chain: NNHQIQELESNVDDLLHQLQLLKEENNRKSMQISEMGKKISDLEVEKTAYRETLTNLNQELARLTNEEQSHRTEIFTLNASFKKQLNDIISQDNEKIEKLTG
stoichiometry N: 2
